Measured values: patent publication US20140241984A1 (UNITED ARAB EMIRATES UNIVERSITY, published 2014)

Columns and labels:
[1] = target: T1, A-beta fibrils (UniProt P05067 672-713, limits assumed); experiment: dot blot
T1 construct: Amyloid fibrils of A-beta spotted in the dot blot; also called β-amyloid

[2] = target: T2, A-beta monomers (UniProt P05067 672-713, limits assumed); experiment: dot blot
T2 construct: also called β-amyloid monomers

[3] = target: T3, IAPP fibrils (UniProt P10997 34-70); experiment: dot blot
T3 construct: Amyloid fibrils of IAPP spotted in the dot blot; also called islet amyloid polypeptide
T3 peptide (looked up): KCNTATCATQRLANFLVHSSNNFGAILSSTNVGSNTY

[4] = target: T4, IAPP monomers (UniProt P10997 34-70); experiment: dot blot
T4 peptide (looked up): T3 peptide (looked up)

[5] = target: β-synuclein fibrils (UniProt Q16143 1-134); experiment: dot blot
Sequence of β-synuclein fibrils (Q16143 whole entry): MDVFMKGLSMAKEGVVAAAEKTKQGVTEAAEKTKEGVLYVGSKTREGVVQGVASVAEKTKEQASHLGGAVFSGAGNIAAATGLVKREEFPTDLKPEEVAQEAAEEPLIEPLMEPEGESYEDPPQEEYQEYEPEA

[6] = target: β-synuclein monomers (UniProt Q16143 1-134); experiment: dot blot
Sequence of β-synuclein monomers (Q16143 whole entry): as above

[7] = target: γ-synuclein fibrils (UniProt O76070 1-127); experiment: dot blot
Sequence of γ-synuclein fibrils (O76070 whole entry): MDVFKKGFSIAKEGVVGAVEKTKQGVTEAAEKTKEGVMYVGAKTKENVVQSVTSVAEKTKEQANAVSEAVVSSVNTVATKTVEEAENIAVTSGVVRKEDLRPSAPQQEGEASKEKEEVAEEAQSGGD

[8] = target: γ-synuclein monomers (UniProt O76070 1-127); experiment: dot blot
Sequence of γ-synuclein monomers (O76070 whole entry): as above

[9] = target: T5, fibrils of NAC (61-95) (human); experiment: dot blot
T5 construct: also called NAC region (61-95) (F)

[10] = target: T6, fibrils of NAC (61-78) (human); experiment: dot blot
T6 construct: also called NAC (61-78) (F)
T6 peptide: EQVTNVGGAVVTGVTAVA

[11] = target: T7, α-synuclein peptide 1 (1-14) (human); experiment: pepscan ELISA
T7 construct: also called Peptide No. 1
T7 peptide: MDVFMKGLSKAKEG

[12] = target: T8, α-synuclein peptide 2 (8-21) (human); experiment: pepscan ELISA
T8 construct: also called Peptide No. 2
T8 peptide: LSKAKEGVVAAAEK

[13] = target: T9, α-synuclein peptide 3 (15-28) (human); experiment: pepscan ELISA
T9 construct: also called Peptide No. 3
T9 peptide: VVAAAEKTKQGVAE

[14] = target: T10, α-synuclein peptide 6 (36-49) (human); experiment: pepscan ELISA
T10 construct: also called Peptide No. 6
T10 peptide: GVLYVGSKTKEGVV

[15] = target: T11, α-synuclein peptide 7 (43-56) (human); experiment: pepscan ELISA
T11 construct: also called Peptide No. 7
T11 peptide: KTKEGVVHGVATVA

[16] = target: T12, α-synuclein peptide 8 (50-63) (human); experiment: pepscan ELISA
T12 construct: also called Peptide No. 8
T12 peptide: HGVATVAEKTKEQV

[17] = target: T13, α-synuclein peptide 9 (57-70) (human); experiment: pepscan ELISA
T13 construct: also called Peptide No. 9
T13 peptide: EKTKEQVTNVGGAV

[18] = target: T14, α-synuclein peptide 10 (64-77) (human); experiment: pepscan ELISA
T14 construct: also called Peptide No. 10
T14 peptide: TNVGGAVVTGVTAV

[19] = target: T15, α-synuclein peptide 11 (71-84) (human); experiment: pepscan ELISA
T15 construct: also called Peptide No. 11
T15 peptide: VTGVTAVAQKTVEG

[20] = target: T16, α-synuclein peptide 12 (78-91) (human); experiment: pepscan ELISA
T16 construct: also called Peptide No. 12
T16 peptide: AQKTVEGAGSIAAA

[21] = target: T17, α-synuclein peptide 13 (85-98) (human); experiment: pepscan ELISA
T17 construct: also called Peptide No. 13
T17 peptide: AGSIAAATGFVKKD

[22] = target: T18, α-synuclein peptide 14 (92-105) (human); experiment: pepscan ELISA
T18 construct: also called Peptide No. 14
T18 peptide: TGFVKKDQLGKNEE

[23] = target: T19, α-synuclein peptide 15 (99-112) (human); experiment: pepscan ELISA
T19 construct: also called Peptide No. 15
T19 peptide: QLGKNEEGAPQEGI

[24] = target: T20, α-synuclein peptide 16 (106-119) (human); experiment: pepscan ELISA
T20 construct: also called Peptide No. 16
T20 peptide: GAPQEGILEDMPVD

[25] = target: T21, α-synuclein peptide 17 (113-126) (human); experiment: pepscan ELISA
T21 construct: also called Peptide No. 17
T21 peptide: LEDMPVDPDNEAYE

[26] = target: T22, α-synuclein peptide 18 (120-133) (human); experiment: pepscan ELISA
T22 construct: also called Peptide No. 18
T22 peptide: PDNEAYEMPSEEGY

B1: Syn-O2 (antibody, IgG1, V domains shown)
VH: EVQLVESGGGLVQPKGSLKLSCAASGFTFNTYAMHWVRQAPGKGLEWVARIRSKSSNYATYYADSVKDRFTISRDDSQSMLYLQMNNLKTEDTAMYYCVRPLKWYFDVWGTGTTVTVSS
VL: QIVLTQSPAILSASPGEKVTMTCSASSTVNYMHWYQQKSGTSPKIWIYDTSKLASGVPARFSGSGSWTSYSLTISSMEAEDAATYYCQQWNSNPPTFGAGTKLELK
notes: same VH and VL as Syn-O1, Syn-O3, Syn-O4; also called mAb Syn-O2
B1: no binding (tested: 50 ng/ml antibody, 50 ng spotted) [1]; no binding (tested: 50 ng/ml antibody, 50 ng spotted) [2]; no binding (tested: 50 ng/ml antibody, 50 ng spotted) [3]. B1: no binding (tested: 50 ng/ml antibody, 50 ng spotted) [4]; no binding (tested: 50 ng spotted) [5]; no binding (tested: 50 ng spotted) [6]. B1: no binding (tested: 50 ng spotted) [7]; no binding (tested: 50 ng spotted) [8]; no binding (tested: 50 ng spotted) [9]. B1: no binding (tested: 50 ng spotted) [10]; no binding (tested: 100 ng/ml antibody, 500 ng/well peptide) [11]; no binding (tested: 100 ng/ml antibody, 500 ng/well peptide) [12]. B1: no binding (tested: 100 ng/ml antibody, 500 ng/well peptide) [13]; no binding (tested: 100 ng/ml antibody, 500 ng/well peptide) [14]; no binding (tested: 100 ng/ml antibody, 500 ng/well peptide) [15]. B1: no binding (tested: 100 ng/ml antibody, 500 ng/well peptide) [16]; no binding (tested: 100 ng/ml antibody, 500 ng/well peptide) [17]; no binding (tested: 100 ng/ml antibody, 500 ng/well peptide) [18]. B1: no binding (tested: 100 ng/ml antibody, 500 ng/well peptide) [19]; no binding (tested: 100 ng/ml antibody, 500 ng/well peptide) [20]; no binding (tested: 100 ng/ml antibody, 500 ng/well peptide) [21]. B1: no binding (tested: 100 ng/ml antibody, 500 ng/well peptide) [22]; no binding (tested: 100 ng/ml antibody, 500 ng/well peptide) [23]; no binding (tested: 100 ng/ml antibody, 500 ng/well peptide) [24]. B1: no binding (tested: 100 ng/ml antibody, 500 ng/well peptide) [25]; no binding (tested: 100 ng/ml antibody, 500 ng/well peptide) [26].

B2: Syn-O4 (antibody, IgG1, V domains shown)
VH: B1 VH
VL: B1 VL
notes: same VH and VL as Syn-O1, Syn-O2, Syn-O3; also called mAb Syn-O4
B2: no binding (tested: 50 ng/ml antibody, 50 ng spotted) [1]; no binding (tested: 50 ng/ml antibody, 50 ng spotted) [2]; no binding (tested: 50 ng/ml antibody, 50 ng spotted) [3]. B2: no binding (tested: 50 ng/ml antibody, 50 ng spotted) [4]; no binding (tested: 50 ng spotted) [5]; no binding (tested: 50 ng spotted) [6]. B2: no binding (tested: 50 ng spotted) [7]; no binding (tested: 50 ng spotted) [8]; no binding (tested: 50 ng spotted) [9]. B2: no binding (tested: 50 ng spotted) [10]; no binding (tested: 100 ng/ml antibody, 500 ng/well peptide) [11]; no binding (tested: 100 ng/ml antibody, 500 ng/well peptide) [12]. B2: no binding (tested: 100 ng/ml antibody, 500 ng/well peptide) [13]; no binding (tested: 100 ng/ml antibody, 500 ng/well peptide) [14]; no binding (tested: 100 ng/ml antibody, 500 ng/well peptide) [15]. B2: no binding (tested: 100 ng/ml antibody, 500 ng/well peptide) [16]; no binding (tested: 100 ng/ml antibody, 500 ng/well peptide) [17]; no binding (tested: 100 ng/ml antibody, 500 ng/well peptide) [18]. B2: no binding (tested: 100 ng/ml antibody, 500 ng/well peptide) [19]; no binding (tested: 100 ng/ml antibody, 500 ng/well peptide) [20]; no binding (tested: 100 ng/ml antibody, 500 ng/well peptide) [21]. B2: no binding (tested: 100 ng/ml antibody, 500 ng/well peptide) [22]; no binding (tested: 100 ng/ml antibody, 500 ng/well peptide) [23]; no binding (tested: 100 ng/ml antibody, 500 ng/well peptide) [24]. B2: no binding (tested: 100 ng/ml antibody, 500 ng/well peptide) [25]; no binding (tested: 100 ng/ml antibody, 500 ng/well peptide) [26].

B3: Syn-O3 (antibody, IgG1, V domains shown)
VH: B1 VH
VL: B1 VL
notes: same VH and VL as Syn-O1, Syn-O2, Syn-O4; also called mAb Syn-O3
B3: no binding (tested: 50 ng/ml antibody, 50 ng spotted) [1]; no binding (tested: 50 ng/ml antibody, 50 ng spotted) [2]; no binding (tested: 50 ng/ml antibody, 50 ng spotted) [3]. B3: no binding (tested: 50 ng/ml antibody, 50 ng spotted) [4]; no binding (tested: 50 ng spotted) [5]; no binding (tested: 50 ng spotted) [6]. B3: no binding (tested: 50 ng spotted) [7]; no binding (tested: 50 ng spotted) [8]; no binding (tested: 50 ng spotted) [9]. B3: no binding (tested: 50 ng spotted) [10]; no binding (tested: 100 ng/ml antibody, 500 ng/well peptide) [11]; no binding (tested: 100 ng/ml antibody, 500 ng/well peptide) [12]. B3: no binding (tested: 100 ng/ml antibody, 500 ng/well peptide) [13]; no binding (tested: 100 ng/ml antibody, 500 ng/well peptide) [14]; no binding (tested: 100 ng/ml antibody, 500 ng/well peptide) [15]. B3: no binding (tested: 100 ng/ml antibody, 500 ng/well peptide) [16]; no binding (tested: 100 ng/ml antibody, 500 ng/well peptide) [17]; no binding (tested: 100 ng/ml antibody, 500 ng/well peptide) [18]. B3: no binding (tested: 100 ng/ml antibody, 500 ng/well peptide) [19]; no binding (tested: 100 ng/ml antibody, 500 ng/well peptide) [20]; no binding (tested: 100 ng/ml antibody, 500 ng/well peptide) [21]. B3: no binding (tested: 100 ng/ml antibody, 500 ng/well peptide) [22]; no binding (tested: 100 ng/ml antibody, 500 ng/well peptide) [23]; no binding (tested: 100 ng/ml antibody, 500 ng/well peptide) [24]. B3: no binding (tested: 100 ng/ml antibody, 500 ng/well peptide) [25]; no binding (tested: 100 ng/ml antibody, 500 ng/well peptide) [26].
